Patent US20060134736A1

Biological target: full-length human growth hormone receptor (stably transfected in BaF3 cells, cell line Baf-B03 B2B2) (human) (UniProt P10912)
Experiment: cell-based or functional assay

UniProt P10912, sequence (P10912 19-638): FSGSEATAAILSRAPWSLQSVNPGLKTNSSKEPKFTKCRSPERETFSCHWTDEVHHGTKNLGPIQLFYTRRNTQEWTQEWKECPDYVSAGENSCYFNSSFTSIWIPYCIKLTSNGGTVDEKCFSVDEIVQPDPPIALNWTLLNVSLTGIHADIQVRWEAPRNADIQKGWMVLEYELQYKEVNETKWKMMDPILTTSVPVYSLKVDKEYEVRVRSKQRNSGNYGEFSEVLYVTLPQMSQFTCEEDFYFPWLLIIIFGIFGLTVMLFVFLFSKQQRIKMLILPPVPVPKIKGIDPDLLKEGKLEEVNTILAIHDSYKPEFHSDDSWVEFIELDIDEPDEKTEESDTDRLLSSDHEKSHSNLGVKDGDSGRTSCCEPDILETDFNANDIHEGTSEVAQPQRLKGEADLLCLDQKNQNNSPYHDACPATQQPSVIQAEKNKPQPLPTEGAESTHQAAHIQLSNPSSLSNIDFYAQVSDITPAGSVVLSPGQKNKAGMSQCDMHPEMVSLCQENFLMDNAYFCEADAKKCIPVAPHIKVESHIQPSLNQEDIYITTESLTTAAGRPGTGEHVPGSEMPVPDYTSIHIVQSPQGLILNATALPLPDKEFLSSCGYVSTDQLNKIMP

| Specific Activity (IU/mg) in the Cell Proliferation Assay [IU/mg] | Substance |
| --- | --- |
| 0.25 | Di-PEG-hGH (two PEGs attached to one hGH molecule, Lot No BPM#04-004) (from UniProt P01241 27-217) (ligand) |
| 0.46 | Mono-PEG-hGH (one PEG attached to one hGH molecule, Lot No BPM#04-003) (from UniProt P01241 27-217) (ligand) |
